Source: patent US20220112276A1 (Janssen / Centocor, published 2022)

Molecular target: T1, recombinant human pIgR (hpIgR) (human, UniProt P01833 19-638, limits assumed)
T1 construct: probably the ECD
Experiment: ELISA, periplasmic VHH, BSA subtracted
Description: Initial Library Screening: After each panning round showing enrichment, 94 individual clones were expressed and tested in an off-phage initial screen for specific binding to mpIgR or hpIgR (respectively depending on the antigen used). Screening of monoclones in an off-phage format was performed by transforming the phagemid pool into a non-amber-suppressor strain of E. coli and picking random colonies. The VHH proteins were recovered in the periplasmic fraction by performing osmotic shock. Periplasmic fractions containing His-tagged nanobodies were tested for binding to hpIgR or mpIgR. Bound nanobody was detected with a polyclonal anti-alpaca VHH domain antibody. Each clone was also tested for non-specific binding to BSA in parallel. The ELISA values obtained on BSA were subtracted from the ELISA values obtained on the respective pIgR antigen.
Repeat Testing of Positive Hits: The hits identified in the initial screen of the phage pools were re-tested for binding to either hpIgR or mpIgR. Periplasmic fractions were prepared again by performing osmotic shock. Periplasmic fractions containing His-tagged nanobodies were tested for binding to mpIgR. In this assay, bound nanobody was detected with an anti-VHH antibody. Each clone was also tested for non-specific binding to BSA in parallel. The ELISA values obtained on BSA were subtracted from the ELISA values obtained on the respective pIgR antigen.

T1 sequence (P01833 19-638 limits assumed): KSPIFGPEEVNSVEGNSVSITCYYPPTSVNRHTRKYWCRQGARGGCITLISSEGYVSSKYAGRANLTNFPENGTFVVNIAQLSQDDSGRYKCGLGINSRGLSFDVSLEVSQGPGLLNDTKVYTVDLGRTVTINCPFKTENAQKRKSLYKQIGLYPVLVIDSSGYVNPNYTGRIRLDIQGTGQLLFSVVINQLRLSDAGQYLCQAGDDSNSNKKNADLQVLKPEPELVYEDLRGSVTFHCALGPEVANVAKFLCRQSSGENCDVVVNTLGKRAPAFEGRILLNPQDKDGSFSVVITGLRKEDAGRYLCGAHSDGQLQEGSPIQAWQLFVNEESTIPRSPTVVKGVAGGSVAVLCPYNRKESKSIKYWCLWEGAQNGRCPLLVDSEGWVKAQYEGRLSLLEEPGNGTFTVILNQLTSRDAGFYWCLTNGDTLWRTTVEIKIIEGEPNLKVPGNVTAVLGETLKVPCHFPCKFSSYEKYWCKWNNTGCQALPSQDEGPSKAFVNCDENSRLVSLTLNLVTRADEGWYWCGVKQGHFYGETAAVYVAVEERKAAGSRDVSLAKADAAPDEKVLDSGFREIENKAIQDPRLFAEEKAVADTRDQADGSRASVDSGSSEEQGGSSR

Binder | ELISA (OD)
01C01R2L His-tagged VHH (VHH) VHH: QVQLVESGGGLVQAGGSLRLSCAASGRTLRSYIVGWFRQAPGKEREFVAAVTWSDGRRVTADPVKGRFTISRDNAKNTVYLQMDSLKPEDAAVYYCAVSRGGAYEYSRAYEYWGQGTLVTVSS | 1.97
01C02R3LS His-tagged VHH (VHH) VHH: QVQLVESGGGLVQAGDSLRLSCAASGRTRTTYGMGWFRQAPGKEREFVTTITWSGSTNYKYYADSVKGRFTISRDNAKNTVYLQMNSLKPDDTAVYYCAASTVLTDPRVPTEYDYWGQGTQVTVSS | 2.01
01H06R3L His-tagged VHH (VHH) VHH: EVQLVESGGGLVQAGDSLRLSCAASGRTRTTYGMGWFRQAPGKEREFVTTITWSGPTNYKYYADSVKGRFTISRDNAKNTAYLQMNSLKPDDTAVYYCAASTVLTDPRVPTEYDYWGQGTQVTVSS | 1.87
01C08R2L His-tagged VHH (VHH) VHH: EVQLVESGGGLVQAGDSLRLSCAASGRTFTTYGVGWFRQAPGKEREFVTTITWSGSTNYKYYADSVKGRFTISRDNAKNTVYLQMNSLKPDDTAVYYCAASTVLTDPRVPTEYDYWGQGTQVTVSS | 1.98
01G08R3LS His-tagged VHH (VHH) VHH: QVQLVESGGGLVQAGDSLRLSCAASGRTFTTYGMGWFRQGPGKEREFVATITWSGSTNYKYYTDSVKGRFTISRDNAKNTVYLQMNSLKPEDTAVYYCAASTVLTDPRRLNEYDYWGQGTQVTVSS | 2.41
01H11R2LS His-tagged VHH (VHH) VHH: EVQLVESGGGLVQAGDSLRLSCAASGRTLTTYGMGWFRQAPGKEREFVATIKWSGSTNYKYYADSVKGRFTISRDNAKNTVYLQMNSLKPEDTAVYYCAAGTVLGDPRVLNEYDYWGQGTLVTVSS | 0.43
01B10R3L His-tagged VHH (VHH) VHH: QVQLVESGGGLVQAGDSLRLSCAASGRTFTTYVMGWFRQPPGKEREFVATISWSGSTTYKYYADSVKGRFTISRDNAKNTVYLQMNSLKPEDTAVYYCAASTVVADPRAPNEYDYWGQGTQVTVSS | 2.04
01B05R2 His-tagged VHH (VHH) VHH: EVQLVESGGGLVQAGGSLRLSCAASGRSLSFDTYAMGWFRQAPGKEREFVASIDWNGGSTYYADSVKGRFTISRDNARNTVNLRMNSLKPDDTAVYYCAAARYYTSGTYFPANYWGQGTQVTVSS | 2.07
01B01R3 His-tagged VHH (VHH) VHH: QVQLVESGGGLVQAGGSLRLSCAASGRTFSSYAMGWFRQAPGKEREFVAVISWSGGSTYYADSVKGRFTISRDNAKNTVYLQMNSLKPEDTAVYYCASGEQPGSNRPYIPEQPIEFMPTDYPSWYDYWGQGTLVTVSS | 1.68
01F03R2 His-tagged VHH (VHH) VHH: QVQLVESGGGLVQAGGSLRLSCAASGRTFSSYAMGWFRQAPGKEREFVAVISWSGGSTYYADSVKGRFTISRDNAKNTVYLQMNSLKPEDTAVYYCASGEQPGSNRPYIPEQPIEFMPTDYPSWYDYWGQGTQVTVSS | 2.1
01E11R2 His-tagged VHH (VHH) VHH: QVQLVESGGGLVQTGGSLRLSCAASGLTFSSYTMGWFRQAPGKEREFVAAISWGGASTWYADSVKGRFTISRDNAKTMVYLQMNGLKPEDTAVYYCAKGRNNGYATAVRAYDYWGQGTLVTVSS | 2.01
01C01R2LS His-tagged VHH (VHH) VHH: QVQLVESGGGLQQAGGSLRLSCAASGRTVTVMTVGWFRQAPGKEREFVAAITMYGERTYYADSVKGRFTISRDNAKNTVDLQMNSLKPEDAAVYYCAARTYVSGIYDRFDDYNYWGQGTQVTVSS | 0.82
01A09R2 His-tagged VHH (VHH) VHH: EVQLVESGGGLVQAGGSLRLSCAASGRTFSSNPMGWFRQAPGKEREFVAAISWSGGGTYYADSVKGRFTISRDNAKNTVTLQMNSLKPEDTAVYYCASRDYSDPISLWVEDREYDYWGQGTQVTVSS | 1.86
01F01R2 His-tagged VHH (VHH) VHH: QVQLVESGGGLVQAGGSLRLSCAASGRTFSSNPMGWFRQAPGKEREFVAAISWSGGGTYYADSVKGRFTISRDNAKNTVTLQMNSLKPEDTAVYYCASRDYSDPISLWVEDREYDYWGQGTQVTVSS | 2.2
01G02R2LS His-tagged VHH (VHH) VHH: QVQLVESGGGLVQAGDSLALSCAGSGDTFSNYAMGWFRQAPGKEREFVADISWYGANIGYADSVKGRFTISRDNAKNMVTLRMNSLKPEDTAVYYCAADRNHWPVKGDYWGQGTQVTVSS | 1.62
01A01R3 His-tagged VHH (VHH) VHH: EVQLVESGGGLVQAGGSLRLSCAASGSGRTFTSYTMGWFRQAPGKEREFVSALTWADDSTYYKYYADSMKGRLTISRDNAKNTVYLQMNSLKPEDTAVYYCVATGRGLTYDPRDRRKYDYWGQGTQVTVSS | 0.91
02D06R3 His-tagged VHH (VHH) VHH: QVQLVESGGGLVQPGGRLRLSCAASGSIFSIRDMAWYRQAPGKQREWVAIAARGGSTHYADSVKGRFTISRDNAKNTVYLQMNTLEPEDTAAYYCNAEVATMIQPGFRDYWGQGTQVTVSS | 2.16
02B03R3 His-tagged VHH (VHH) VHH: EVQLVESGGGLVQSGGQLRLSCAASGSIASIRDMAWYRQAPGKQRELVAIFARGGTTHYADSVKGRFTISRDNAKNTVYLQMNSLEPEDTAAYYCNAEVATMFQPGFRDYWGRGTLVTVSS | 0.44
01C03R3L His-tagged VHH (VHH) VHH: QVQLVESGGGLVQPGGRLRLSCAASGSIFSIRDMGWYRQAPGKQRELVAIFARGGSTHYADSVKGRFTISRDNAKNTVYLQMNSLEPEDTAAYYCNAEVATMIQPGFRDYWGQGTLVTVSS | 1.77
01A03R3L His-tagged VHH (VHH) VHH: EVQLVESGGGLVQPGGQLRLSCAASGSIASVRDMAWYRQAPGKQRGLVAIFARGGTTHYADSVKGRFTISRDNAKNTVYLQMNSLEPEDTAAYYCNAEVATMFQPGFRDYWGRGTLVTVSS | 2.03

The remaining lines, values ahead:

ELISA (OD) | Binder
0.99 | 03C05R3 His-tagged VHH (VHH) VHH: EVQLVESGGGLVKAEGSLRLSCVASTSIASINVMGWYRQAPGKERELVARISGGGITHYAESVEGRFTISRDNAKNTVHLQMNGLKPEDTAAYYCKADVFASSGHVTTYWGQGTLVTVSS
1.54 | 02E01R3LS His-tagged VHH (VHH) VHH: QVQLVESGGGLVQAGDSLRLSCAASGRTFTTYGMGWFRQAPGKEREFVTTITWSGSTNYKYYADSVKGRFTISRDNAKNTVYLQMNSLKPDDTAVYYCAASTVLRDPRVPTEYDYWGQGTQVTVSS
1.8 | 02G06R3 His-tagged VHH (VHH) VHH: EVQLVESGGGLVQAGGSLRLSCAASGRTFDSYAMGWFRQAPGKEREFVAAISWTGGSTDYADSVKGRFTISRDNAKNTVYLQMDSLKPEDTAVYYCAAEVVGRDVTTMYRVSGLEYEYDYWGQGTQVTVSS
2 | 02G03R3 His-tagged VHH (VHH) VHH: EVQLVESGGGLVQAGGSLRLSCAASGMPDNIFSIKTMGWYRQAPGKERELVAAITSGGSTNYGDSVKDRFTISRDRIENTVNLEMNNLKPEDTAVYTCHADLTYIRFQDMEYWGKGTQVTVSS
1.97 | 02H11R3 His-tagged VHH (VHH) VHH: EVQLVESGGGSVQAGGSLRLSCAASGRTFSNYAMGWFRQAPGKEREFVAGISRSGGSTYSADSVKGRFTISRDNAKNTVYLQMNSLKPEDTAVYYCAADGLDYALGFRGDYWGQGTQVTVSS
2.19 | 03B07R3 His-tagged VHH (VHH) VHH: QVQLVESGGGLVQAGGSLRLSCAASGRTFSSNPMGWFRQAPGKEREFVAAISWSGGGTYYADSVKGRFTISRDNAKNTVTLQMNSLKPEDTAVYYCASRDYSDPISLWVEDREYDYWGQGTLVTVSS
2.29 | 03D05R3 His-tagged VHH (VHH) VHH: EVQLVESGGGLVQAGGSLRLSCAASGRTFSSNPMGWFRQAPGKEREFVAAISWSGGGTYYADSVKGRFTISRDNAKNTVTLQMNSLKPEDTAVYYCASRDYSDPISLWVEGREYDYWGQGTLVTVSS
0.93 | 02G04R3 His-tagged VHH (VHH) VHH: QVQLVESGGGLVQAGGSLRLSCAANGRAANAYAVGWFRQAPGKEREFVAHIRWNGGRTAYADSVKGRFTISRDDAKNTVYLQMDSLKPEDTAVYYCAEDTNPDAFGDLRLPSEYEYWGQGTQVTVSS
2.1 | 03A08R3 His-tagged VHH (VHH) VHH: QVQLVESGGGLVQAGGSLRLSCAASGRTSSIYGMGWFRQAPGKEREFVAAISWSAGRTYHADSVKGRFTISRDNAKNMVYLQMDKMKPGDTAVYYCAARRAPELLSDYTQKPEEIGTYHYWGQGTLVTVSS
2.4 | 02H04R3 His-tagged VHH (VHH) VHH: EVQLVESGGGLVQPGGRLRLSCAASGSIFSIRDMGWYRQAPGKQRELVAIFARGGSTHYADSVKGRFTISRDNAKNTVYLQMNSLEPEDTAAYYCNAEVATMIQPGFRDYWGQGTQVTVSS
